Legend:
[1] = system: male MALB/c mice; test: intraperitoneal administration to mice, observation of appearance; type: in vivo; settings: 10 mg/kg intraperitoneally, male MALB/c mice (6 weeks age)
[2] = system: arginine loaded dogs; test: infusion into the pancreatic artery of arginine loaded dogs; plasma insulin, plasma glucagon and blood glucose measured; type: in vivo, mongrel dogs; settings: 100 pmol or 400 pmol glicentin solution infused into the pancreatic artery for 10 minutes
Procedure: Healthy mongrel dogs weighing 13 to 17 kg were subjected to the test after an overnight fast (A. Ohneda et al., Hotre. Metab. Res., 9, 447-452 (1977)).
The animals were anesthetized with sodium pentobarbital (Nembutal®) and their abdomens were opened. […] After the operation was completed, saline solution containing 0.5% arginine was infused into the pancreatic artery at a constant rate of 2 ml/min through the cannula using an infusion pump. […] 4 ml portions of blood samples for hormone assay were collected at various intervals into a glass tube containing 1000 KIU aprotinine and 10 mg EDTA.
The plasma insulin was measured in accordance with a known method mentioned in C.
The blood glucose was measured for blood drawn from the femoral artery by the glucose oxidase method using a test kit for the determination of blood glucose (available from Wako Pure Chemical Industries, Japan under the trade name of "Glucose B-Test Wako").

B1: glicentin: peptide comprising 69 amino acid residues, major component of gut glucagon-like immunoreactants; produced by recombinant DNA in E. coli (protein)
chain: RSLQDTEEKSRSFSASQADPLSDPDQMNEDKRHSQGTFTSDYSKYLDSRRAQDFVQWLMNTKRNRNNIA
change in appearance [1]: no change in appearance | insulin secretion (plasma insulin, IRI) ([2]; 0.5% arginine infusion, anesthetized dogs): stimulates insulin secretion | glucagon level (IRG(G 21)) ([2]; antiserum G 21 specific for C-terminal portion of glucagon): not increased | blood glucose levels ([2]; blood from femoral artery, glucose oxidase method): no change

— US5616558A, “Medicaments comprising glicentin as active ingredient” (Nisshin Flour Milling Co., Ltd., priority 1992, dated 1997)
